One experiment has as its target T1, CD36 (Homo sapiens, UniProt P16671).
T1 construct: expressed in transfected cells; host or cells: HEK293
The experiment in a line: IL-8 in conditioned medium (ELISA) of CD36-expressing HEK293 cells after 20 hours incubation with CD36 ligands. The settings on record: CD36-expressing HEK293 cells; increasing ligand concentrations; 20 hours (FIG. 8). It is filed as cell-based. The protocol: (§1) Following 20 hours incubation of wild-type (WT) and CD36-expressing (CD36+) HEK293 cells with increasing concentrations of CD36 ligands, the IL-8 levels were determined in conditioned medium by ELISA.
Following 20 hours incubation of CD36-expressing cells with the indicated amounts of the ligands, the IL-8 levels were determined in conditioned medium.
(§2) To study this, the applicant conducted cell culture experiments using wildtype (WT) and CD36+ expressing (CD36+) HEK293 cells, treated with increasing amounts of CD36 ligands. Specifically, the ligands tested were the PAMP lipopolysaccharide (LPS) and the DAMPs high mobility group box 1 protein (HMGB1), Histone H3B, and heat shock protein 60 (HSP60). […] Similarly to HSP60, it is presumed that HSP70 and HSP90 also cause inflammation mediated by the CD36 receptor, and which may be alleviated by the disclosed peptides.
Additionally, the applicant studied the effects of the above-referenced SAHP L37pA as an inhibitor of CD36-dependent, PAMP/DAMP-induced pro-inflammatory response. See FIGS. 9(a)-9(c) To study this, the applicant conducted cell culture experiments using CD36+ HEK293 cells, treated with increasing amounts of CD36 ligands. […] As controls, no treatment, L37pA alone, and L3D alone were administered.
As controls, no treatment, L37pA alone, and L3D alone were administered. […]
(In general: ELISA stands for enzyme-linked immunosorbent assay.)

The subject of experiment [1] is wild-type (WT) HEK293 cells. As to the kind of experiment: IL-8 in conditioned medium (ELISA) of wild-type HEK293 cells after 20 hours incubation with CD36 ligands. It is filed as cell-based. Conditions: wildtype HEK293 cells; increasing ligand concentrations; 20 hours (FIG. 8). The protocol: as §1, §2

Data on one molecule can be found in patent US20250066452A1, “SYNTHETIC AMPHIPATHIC HELICAL PEPTIDES AND TREATMENT METHODS USING SYNTHETIC AMPHIPATHIC HELICAL PEPTIDES” (UNIVERSITY OF MARYLAND, BALTIMORE, priority 2022, published 2025).

T1 sequence (P16671 whole entry): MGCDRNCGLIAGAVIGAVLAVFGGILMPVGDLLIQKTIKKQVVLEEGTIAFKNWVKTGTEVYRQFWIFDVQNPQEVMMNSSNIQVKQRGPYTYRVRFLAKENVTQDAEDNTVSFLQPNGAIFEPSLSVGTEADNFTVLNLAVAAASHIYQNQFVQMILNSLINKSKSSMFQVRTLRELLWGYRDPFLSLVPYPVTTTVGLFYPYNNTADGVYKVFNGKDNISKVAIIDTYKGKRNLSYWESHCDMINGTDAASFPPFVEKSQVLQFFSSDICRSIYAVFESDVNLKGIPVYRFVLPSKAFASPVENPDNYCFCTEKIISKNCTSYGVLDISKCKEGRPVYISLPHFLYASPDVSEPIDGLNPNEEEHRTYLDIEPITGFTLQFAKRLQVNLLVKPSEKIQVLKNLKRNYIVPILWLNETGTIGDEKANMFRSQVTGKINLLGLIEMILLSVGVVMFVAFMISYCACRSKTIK

B1: heat shock protein 60 (protein, UniProt P10809 27-573, looked up)
60 kDa heat shock protein, …: AKDVKFGADARALMLQGVDLLADAVAVTMGPKGRTVIIEQSWGSPKVTKDGVTVAKSIDLKDKYKNIGAKLVQDVANNTNEEAGDGTTTATVLARSIAKEGFEKISKGANPVEIRRGVMLAVDAVIAELKKQSKPVTTPEEIAQVATISANGDKEIGNIISDAMKKVGRKGVITVKDGKTLNDELEIIEGMKFDRGYISPYFINTSKGQKCEFQDAYVLLSEKKISSIQSIVPALEIANAHRKPLVIIAEDVDGEALSTLVLNRLKVGLQVVAVKAPGFGDNRKNQLKDMAIATGGAVFGEEGLTLNLEDVQPHDLGKVGEVIVTKDDAMLLKGKGDKAQIEKRIQEIIEQLDVTTSEYEKEKLNERLAKLSDGVAVLKVGGTSDVEVNEKKDRVTDALNATRAAVEEGIVLGGGCALLRCIPALDSLTPANEDQKIGIEIIKRTLKIPAMTIAKNAGVEGSLIVEKIMQSSSEVGYDAMAGDFVNMVEKGIIDPTKVVRTALLDAAGVASLLTTAEVVVTEIPKEEKDPGMGAMGGMGGGMGGGMF
notes: DAMP, CD36 ligand
As for B1, the entries for the “IL-8 produced by cells treated with the ligand” value (with CD36; in experiment [1]) were “significant amount of IL-8” and “minimal amount of interleukin 8”, respectively.
